Results taken from patent US20260216326A1 (PROMETHEUS BIOSCIENCES, published 2026).
Numbering of substitutions follows the chain as printed. Numbers in names are those of the source.

Assays:
human TL1A = molecular target: T1, human TL1A (human, UniProt O95150 72-251, limits assumed); assay: ELISA titration on plate-coated human TL1A, unpurified culture supernatant
T1 construct: also called tumor necrosis factor-like cytokine 1A; TNFSF15
T1 sequence (looked up): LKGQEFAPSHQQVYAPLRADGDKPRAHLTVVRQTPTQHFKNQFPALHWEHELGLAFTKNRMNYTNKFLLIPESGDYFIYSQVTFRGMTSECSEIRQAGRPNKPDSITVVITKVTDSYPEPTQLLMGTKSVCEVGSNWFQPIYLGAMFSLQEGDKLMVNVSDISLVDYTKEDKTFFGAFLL

TL1A in human blood [1] = molecular target: T2, TL1A in human blood (human, UniProt O95150 72-251, limits assumed); assay: cell-based or functional assay
T2 sequence (looked up): T1 sequence (looked up)

TL1A in human blood [2] = molecular target: T2, TL1A in human blood; assay: cell-based or functional assay; remark: listed apart in the source
[3] = molecular target: T3, DR3 (Death Receptor 3) natively expressed on human TF-1 cells (human, UniProt Q93038 25-417); assay: TF-1 cell caspase activation assay
T3 construct: whole, on cells; also called TNFRSF25
T3 sequence (looked up): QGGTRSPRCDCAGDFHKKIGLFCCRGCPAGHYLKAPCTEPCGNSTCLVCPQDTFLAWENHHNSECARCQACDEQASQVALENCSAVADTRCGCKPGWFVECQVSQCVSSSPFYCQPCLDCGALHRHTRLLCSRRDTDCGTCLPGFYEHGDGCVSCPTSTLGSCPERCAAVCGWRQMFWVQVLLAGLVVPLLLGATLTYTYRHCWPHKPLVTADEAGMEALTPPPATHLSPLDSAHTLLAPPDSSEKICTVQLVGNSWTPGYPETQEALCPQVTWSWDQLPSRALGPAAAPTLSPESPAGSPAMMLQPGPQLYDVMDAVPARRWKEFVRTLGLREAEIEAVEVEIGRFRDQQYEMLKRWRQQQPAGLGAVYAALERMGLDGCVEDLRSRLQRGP
Excerpt: TF-1 cells are human erythroleukemic cells that natively express DR3, the functional receptor for TL1A.

recombinant TL1A antigen = molecular target: T4, recombinant TL1A antigen (UniProt O95150 72-251, limits assumed); assay: ELISA titration against recombinant TL1A antigen
T4 sequence (looked up): T1 sequence (looked up)

B1: A196 (antibody, IgG1, V domains shown)
VH: EVQLVQSGAEVKKPGASVKVSCKASGFDIQDTYMHWVRQAPGQGLEWMGRIEPASGHIKYDPKFQGRATMTRDTSTSTVYMELSSLRSEDTAVYYCARSGGLPDWWGQGTTVTVSS
VL: EIVLTQSPGTLSLSPGERATLSCRASSSVSYMYWYQQKPGQAPRPWIYATSNLASGIPDRFSGSGSGTDFTLTISRLEPEDFAVYYCQQWEGNPRTFGGGTKLEIK
Q: How did the Kd (human TL1A) turn out when B1 was run?
A: The Kd was 54 pM.

B2: A197 (antibody, IgG1, V domains shown)
VH: B1 VH with R38K, A68V
VL: B1 VL
Q: B2 was tested. Which Kd (human TL1A) did it give?
A: Its Kd is 54 pM.

B3: A198 (antibody, IgG1, V domains shown)
VH: B1 VH with A68V, V79A
VL: B1 VL
Q: B3 was tested. Which Kd (human TL1A) did it give?
A: The Kd was 53 pM.

B4: A199 (antibody, IgG1, V domains shown)
VH: EVQLVQSGAEVKKPGASVKVSCKASGFDIQDTYMHWVKQRPGQGLEWIGRIDPASGHTKYDPKFQVRATITTDTSTSTAYLELSSLRSEDTAVYYCARSGGLPDVWGQGTTVTVSS
VL: B1 VL with W46L
Q: How did the Kd (human TL1A) turn out when B4 was run?
A: Its Kd is 50 pM.

B5: A200 (antibody, IgG1, V domains shown)
VH: B4 VH with K38R
VL: B1 VL with W46L
Q: B5 was tested. Which Kd (human TL1A) did it give?
A: Its Kd is 52 pM.

B6: A201 (antibody, IgG1, V domains shown)
VH: B1 VH with M70I, R72T
VL: B1 VL with W46L
Q: With B6 as the binder, how does the Kd (human TL1A) read?
A: The Kd was 58 pM.

B7: A202 (antibody, IgG1, V domains shown)
VH: B1 VH
VL: B1 VL with W46L
Q: Which Kd (human TL1A) does the source give for B7 here?
A: Its Kd is 59 pM.

B8: A203 (antibody, IgG1, V domains shown)
VH: B1 VH with R38K, A68V
VL: B1 VL with W46L
Q: With B8 as the binder, how does the Kd (human TL1A) read?
A: The Kd was 62 pM.

B9: A204 (antibody, IgG1, V domains shown)
VH: B1 VH with A68V, V79A
VL: B1 VL with W46L
Q: For B9, which Kd (human TL1A) is on record?
A: The Kd was 53 pM.

B10: A205 (antibody, IgG1, V domains shown)
VH: B4 VH
VL: B1 VL with P45L, W46L
Q: How did the Kd (human TL1A) turn out when B10 was run?
A: Its Kd is 55 pM.

B11: A206 (antibody, IgG1, V domains shown)
VH: B4 VH with K38R
VL: B1 VL with P45L, W46L
Q: Which Kd (human TL1A) does the source give for B11 here?
A: Its Kd is 50 pM.

B12: A209 (antibody, IgG1, V domains shown)
VH: B1 VH with R38K, A68V
VL: B1 VL with P45L, W46L
Q: For B12, which Kd (human TL1A) is on record?
A: The Kd was 58 pM.

B13: A210 (antibody, IgG1, V domains shown)
VH: B1 VH with A68V, V79A
VL: B1 VL with P45L, W46L
Q: With B13 as the binder, how does the Kd (human TL1A) read?
A: Its Kd is 70 pM.

B14: A211 (antibody, IgG1, V domains shown)
VH: B4 VH with E1Q
VL: B1 VL with W46L
Q: For B14, which Kd (human TL1A) is on record?
A: The Kd was 58 pM.

B15: A212 (antibody, IgG1, V domains shown)
VH: B4 VH with E1Q, K38R
VL: B1 VL with W46L
Q: B15 was tested. Which “% Inhibition at 1 nM Ig; interferon gamma release in human blood” value (“% Inhibition at 1 nM Ig” below) (TL1A in human blood [1]) did it give?
A: The value was 46.8%.

Q: And the “% Inhibition at 10 nM Ig; interferon gamma release in human blood” value (“% Inhibition at 10 nM Ig” for short) (TL1A in human blood [1])?
A: Its value is 71.2%.

Q: And the “IC50 values, Mean; inhibition of interferon gamma release from multiple human donors” value (TL1A in human blood [2])?
A: The value was 51.3.

Q: What about the Kd (human TL1A) of the same binder?
A: The Kd was 50 pM.

B16: A213 (antibody, IgG1, V domains shown)
VH: B4 VH with E1Q, K38R, I48M, A68V, A79V, L81M
VL: B1 VL with W46L
Q: B16 was tested. Which “% Inhibition at 1 nM Ig” value (TL1A in human blood [1]) did it give?
A: Its value is 48.6%.

Q: What about the “% Inhibition at 10 nM Ig” value (TL1A in human blood [1]) of the same binder?
A: The value was 69.8%.

Q: And the “IC50 values, Mean; inhibition of interferon gamma release from multiple human donors” value (TL1A in human blood [2])?
A: Its value is 46.8.

Q: And the Kd (human TL1A)?
A: Its Kd is 49 pM.

B17: A214 (antibody, IgG1, V domains shown)
VH: B4 VH with E1Q, K38R, I48M, A68V, T72R
VL: B1 VL with W46L
Q: With B17 as the binder, how does the Kd (human TL1A) read?
A: Its Kd is 51 pM.

B18: A215 (antibody, IgG1, V domains shown)
VH: B4 VH with E1Q, K38R, I48M, A68V
VL: B1 VL with W46L
Q: How did the Kd (human TL1A) turn out when B18 was run?
A: The Kd was 48 pM.

B19: A216 (antibody, IgG1, V domains shown)
VH: B4 VH with E1Q, K38R, A68V, T72R
VL: B1 VL with W46L
Q: B19 was tested. Which Kd (human TL1A) did it give?
A: The Kd was 49 pM.

B20: A217 (antibody, IgG1, V domains shown)
VH: B4 VH with E1Q, I48M, A68V, T72R, A79V, L81M
VL: B1 VL with W46L
Q: For B20, which “% Inhibition at 1 nM Ig” value (TL1A in human blood [1]) is on record?
A: The value was 46%.

Q: What about the “% Inhibition at 10 nM Ig” value (TL1A in human blood [1]) of the same binder?
A: Its value is 72.2%.

Q: And the Kd (human TL1A)?
A: The Kd was 43 pM.

B21: A218 (antibody, IgG1, V domains shown)
VH: B4 VH with E1Q, I48M, A68V, T72R, L81M
VL: B1 VL with W46L
Q: B21 was tested. Which Kd (human TL1A) did it give?
A: Its Kd is 51 pM.

B22: A220 (antibody, IgG1, V domains shown)
VH: B4 VH with E1Q, I48M, A68V, I70M, T72R
VL: B1 VL
Q: B22 was tested. Which “% Inhibition at 1 nM Ig” value (TL1A in human blood [1]) did it give?
A: The value was 36.9%.

Q: And the “% Inhibition at 10 nM Ig” value (TL1A in human blood [1])?
A: The value was 63.2%.

Q: And the Kd (human TL1A)?
A: The Kd was 50 pM.

B23: A222 (antibody, IgG1, V domains shown)
VH: B4 VH with E1Q, I48M, A68V, T72R
VL: B1 VL with W46L
Q: For B23, which Kd (human TL1A) is on record?
A: Its Kd is 60 pM.

B24: A223 (antibody, IgG1, V domains shown)
VH: B4 VH with K38R
VL: B1 VL with P45L, W46L
Q: Which Kd (human TL1A) does the source give for B24 here?
A: Its Kd is 62 pM.

B25: A224 (antibody, IgG1, V domains shown)
VH: B1 VH with R38K, A68V
VL: B1 VL with W46L
Q: For B25, which Kd (human TL1A) is on record?
A: The Kd was 76 pM.

B26: A147 (antibody, IgG1, V domains shown)
VH: B1 VH with E1Q, R38K, A40R, A68V
VL: B1 VL with W46L
Q: B26 was tested. Which “% Inhibition at 1 nM Ig” value (TL1A in human blood [1]) did it give?
A: The value was 51.3%.

Q: And the “% Inhibition at 10 nM Ig” value (TL1A in human blood [1])?
A: Its value is 72.4%.

B27: recombinant human TL1A protein (tumor necrosis factor-like cytokine 1A) (ligand, UniProt O95150 72-251, looked up)
chain: T1 sequence (looked up)
notes: Recombinant protein used in ELISA, SPR and the TF-1 caspase assay; also called TNFSF15; soluble TL1A
Q: Does B27 bind [3]?
A: Result: binds

B28: anti-TL1A antibody with heavy chain SEQ ID NO: 380 (IgG4, S228P, F234A, L235A; Fc SEQ ID NO: 367) and light chain SEQ ID NO: 381 (antibody)
heavy: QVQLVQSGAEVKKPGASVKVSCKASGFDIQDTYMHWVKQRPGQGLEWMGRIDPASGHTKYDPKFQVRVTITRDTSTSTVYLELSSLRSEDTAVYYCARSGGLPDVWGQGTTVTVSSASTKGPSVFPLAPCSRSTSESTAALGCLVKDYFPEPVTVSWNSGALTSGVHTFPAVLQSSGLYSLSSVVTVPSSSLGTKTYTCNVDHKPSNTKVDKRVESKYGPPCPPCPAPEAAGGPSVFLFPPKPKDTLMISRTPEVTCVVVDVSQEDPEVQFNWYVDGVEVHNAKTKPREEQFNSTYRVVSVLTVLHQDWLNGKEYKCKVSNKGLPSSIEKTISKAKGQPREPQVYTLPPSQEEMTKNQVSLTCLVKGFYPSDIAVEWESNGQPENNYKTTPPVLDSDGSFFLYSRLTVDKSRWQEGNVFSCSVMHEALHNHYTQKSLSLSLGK
light: EIVLTQSPGTLSLSPGERATLSCRASSSVSYMYWYQQKPGQAPRPLIYATSNLASGIPDRFSGSGSGTDFTLTISRLEPEDFAVYYCQQWEGNPRTFGGGTKLEIKRTVAAPSVFIFPPSDEQLKSGTASVVCLLNNFYPREAKVQWKVDNALQSGNSQESVTEQDSKDSTYSLSSTLTLSKADYEKHKVYACEVTHQGLSSPVTKSFNRGEC
Q: How did the EC50 (recombinant TL1A antigen) turn out when B28 was run?
A: Its EC50 is 252 pM.
